Values quoted from earlier work in paper PMC6667139.

Molecular target: TGFβ receptor I and II (Homo sapiens) (UniProt P36897)
Sequence (P36897 34-126, chain 1 of 2): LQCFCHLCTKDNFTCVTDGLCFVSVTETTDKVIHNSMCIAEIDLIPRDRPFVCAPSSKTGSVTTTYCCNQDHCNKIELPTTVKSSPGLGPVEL
Sequence (partner, as listed by the source, chain 2 of 2): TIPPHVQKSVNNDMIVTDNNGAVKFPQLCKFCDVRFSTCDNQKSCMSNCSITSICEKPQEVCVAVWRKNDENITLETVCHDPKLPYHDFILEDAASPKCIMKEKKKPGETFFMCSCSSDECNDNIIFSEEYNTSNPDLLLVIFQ

Chain of TGFβ (P01137 279-390): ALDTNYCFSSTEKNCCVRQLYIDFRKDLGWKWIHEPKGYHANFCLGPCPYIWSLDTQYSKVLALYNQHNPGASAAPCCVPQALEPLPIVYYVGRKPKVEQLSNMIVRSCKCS

Kd: 0.05 nM
Substance: TGFβ (from UniProt P01137)
